System: MS2 coat protein
Assay: apparent KD of MS2 coat protein; designed switch direction (-1 OFF switch, 1 ON switch): -1; higher = weaker reporter binding
How it was run: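 Designed RNA switches were transcribed on Illumina chips by stalled E. coli RNA polymerase and titrated with SNAP-549-labelled MS2 coat protein from 0.7 or 1.5 nM, doubling to 3 µM. Step length ran from 0.8–1.5 h at the lowest concentration to 10–20 min at the highest. The apparent KD is the median over clusters for each design, from curve-fitted normalised cluster fluorescence.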

[1] = Eterna round: R95, input ligand: FMN 200 uM
[2] = Eterna round: R95, input ligand: microRNA oligo, concentration not stated
[3] = Eterna round: R95, input ligand: none
[4] = input ligand: microRNA oligo, concentration not stated

Row | Sequence | apparent KD of MS2 coat protein (input ligand: FMN 200 uM) | apparent KD of MS2 coat protein (input ligand: none) | apparent KD of MS2 coat protein [2] | further results
1 | AGGUGUAGAGGAUAUACAGUGUAUUACAUGAGGAUCACCCAUGUCCCUCAAUGAGUGUCAGUAGAAGGCUACACCA [Omei Ex5 C3] (Eterna round: R97, puzzle: Exclusion 5) | 0.329 µM | 0.403 µM | – | –
2 | AUGAGCAGACGGAGAUCCAACAUGAGGAUCACCCAUGUCUCAAAAGCUUUUUGCUCAUCUUAUCGUACCUUGGUGCU [Mat - Sensor v3 - turn-off var 1 - JL Mod - D13] (puzzle: Sensor v3, turn-off variant 1) | – | – | 0.0154 µM | apparent KD of MS2 coat protein [1]: 0.162 µM; apparent KD of MS2 coat protein [3]: 0.238 µM
3 | UCAAGUAUGUAGGAUAUCGAUGUCUGCGGACAUCGAGAAGGACGUACAUGAGGAUCACCCAUGUAACUUGCAUG [Exclusion 6 - B - 10:c] (puzzle: Exclusion 6) | – | – | 0.0709 µM | –
4 | GGGCUGUCAGGAUAUACAUGAGGAUCACCCAUGUCGAGCUAUGAUAGGGCAAGAGUAGGUAGAAGGGACGAGAG [JR_Exclu3_Sub043] (puzzle: Exclusion 3) | – | – | 0.0326 µM | apparent KD of MS2 coat protein [1]: 0.0437 µM; apparent KD of MS2 coat protein [3]: 0.0327 µM
5 | CAGUACUGAGGAUAUACAUGAGGAUCACCCAUGUGUUCCAGCUAGGAAACUAGCACUUGUAGAAGGCAGUACUG [Ex3: 830] (Eterna round: R96, puzzle: Exclusion 3) | 0.458 µM | 0.0267 µM | – | apparent KD of MS2 coat protein [4]: 0.0216 µM
6 | CAGUACUGCAAGCUAUGGGACAUGAGGAUCACCCAUGUUCGUCUUAUUGAUCUAGGUACGCUGACGUACCUAGAUCU [JL-sv1-2.20 Brourd mod] (puzzle: Sensor v3, turn-off variant 1) | – | – | 0.0205 µM | apparent KD of MS2 coat protein [1]: 0.0163 µM; apparent KD of MS2 coat protein [3]: 0.0159 µM
7 | CUGGUGUGAGGAUAUCAGGGCACGCCCAAGGGCGUACCAAAUGAGAAGGCACAUGAGGAUCACCCAUGUGGGAC [Lasoena] (puzzle: Exclusion 4) | – | – | 0.032 µM | –
8 | UAGCAAGCAAUAAGAUCCCACAUGAGGAUCACCCAUGUGCUCGUCUUAUAAAAGGUUUCGACGAAAACGUCGAGACC [Eli 91 v28] (Eterna round: R97, puzzle: Sensor, turn-off variant 1) | 0.0198 µM | 0.016 µM | – | –
9 | AUUAUGUUAGGAUAUGCUUAUGGUGGAUAGUCCAGUAUGGUGUAGAAGGGACAUGAGGAUCACCCAUGUGCUGA [EX4 #33] (Eterna round: R97, puzzle: Exclusion 4) | 0.0352 µM | 0.034 µM | – | –
10 | UUUUUAUAUGAAGGAUAUACUUAACAUGAGGAUCACCCAUGUGGUGUUGUGAGUGAGUGAGUUUAGUAGAAGGUCAAUUAGCUU [JMF's solution 100] (Eterna round: R96, puzzle: Exclusion NG 2) | 0.33 µM | 0.342 µM | – | apparent KD of MS2 coat protein [4]: 0.185 µM
11 | AGUAGUAGUAUCCGAUCCUACAUGAGGAUCACCCAUGUAGCUAGACGUGCACGCGAUGCUCGUCAGACUACCAGAUG [salish99_TOv1_r3_033] (puzzle: Sensor v3, turn-off variant 1) | – | – | 0.184 µM | apparent KD of MS2 coat protein [1]: 0.195 µM; apparent KD of MS2 coat protein [3]: 0.253 µM
12 | GGUUGUUGUUUCCGUUCUUACAUGAGGAUCACCCAUGUUUCUUGUCGUGCUCGCGUUGCUCGUCUGGCUGUCUGUUG [salish99_TOv1_r3_071] (puzzle: Sensor v3, turn-off variant 1) | – | – | 0.0402 µM | apparent KD of MS2 coat protein [1]: 0.0523 µM; apparent KD of MS2 coat protein [3]: 0.0677 µM
13 | UAUUAGCAAGCAACUGGGUACAUGAGGAUCACCCAUGUGCUCGUCUUAUAAGGUACUGUGACGAAAGUUACGGUACC [mod--Eli115] (Eterna round: R97, puzzle: Sensor, turn-off variant 1) | 0.0179 µM | 0.0174 µM | – | –
14 | GUGUGCUGAGGAUAUACAUAGGAAUAGAAUAGAAUAGAAUGACAUGAGGAUCACCCAUGUAGAAGGCAGAGUGU [Excluse me!! 13 - Jieux - Exclusion 2] (puzzle: Exclusion 2) | – | – | 0.0214 µM | apparent KD of MS2 coat protein [1]: 0.0396 µM; apparent KD of MS2 coat protein [3]: 0.0248 µM
15 | UUUUUGUGAGGAUAUCAGUAGUAGAACAAUAGUACUACUACUGAGAAGGCACAUGAGGAUCACCCAUGUUCCUC [Fiskers Ex 4 Super stable 44 mod 9] (puzzle: Exclusion 4) | – | – | 0.0526 µM | –
16 | UAUCGGCGGACCGAGGCUUUUUGCUCGUCUUAUGCUACAACAUGAGGAUCACCCAUGUGGUGGUGGUCCGUUGUAGU [JL ViennaUCT Bitein mod 9] (puzzle: Sensor v3, turn-off variant 2) | – | – | 0.0135 µM | apparent KD of MS2 coat protein [1]: 0.0197 µM; apparent KD of MS2 coat protein [3]: 0.0318 µM
17 | GAAGGUGAGCAGGAUAUCCGCGCACGAAUAUAAGGAGAAGGGCUUACAUGAGGAUCACCCAUGUAAGGUGGUAG [Rexequar] (puzzle: Exclusion 6) | – | – | 0.0119 µM | apparent KD of MS2 coat protein [1]: 0.0158 µM; apparent KD of MS2 coat protein [3]: 0.0115 µM
18 | GAUUAUGCGAGCUUUAGGGACAUGAGGAUCACCCAUGUUCGUCUUAUUAAUCUAGGUGCACUGACAUACCUAAAUCU [JMF 87] (puzzle: Sensor v3, turn-off variant 1) | – | – | 0.03 µM | apparent KD of MS2 coat protein [1]: 0.0207 µM; apparent KD of MS2 coat protein [3]: 0.0217 µM

Row | Sequence | apparent KD of MS2 coat protein (input ligand: FMN 200 uM) | apparent KD of MS2 coat protein (input ligand: none) | apparent KD of MS2 coat protein [2] | further results
19 | CUGAUGUUAGGAUAUCAGGCGCCCGCCACUAGCAAGGCGCAUGAGAAGGGACAUGAGGAUCACCCAUGUAGUAA [Xexeonza] (puzzle: Exclusion 4) | – | – | 0.0277 µM | –
20 | GAAUAGGGAGGAUAUCCAAUAUAUGACAUGAGGAUCACCCAUGUUUCCACUCGUACCUCCGGAGAAGGCCCAUAAA [Ex5 #4] (Eterna round: R97, puzzle: Exclusion 5) | 0.0228 µM | 0.0199 µM | – | –
21 | AUUGUGUUAGGAUAUGCUUAUGGUGGGUAGUCCAGUAUGGAGUAGAAGGGACAUGAGGAUCACCCAUGUGCUCA [EX4 #38] (Eterna round: R97, puzzle: Exclusion 4) | 0.215 µM | 0.137 µM | – | –
22 | GCAUCCAAAGUGAGGAUAUACCUCUGGAUACAUAGGUAGAAGGCACAUGAGGAUCACCCAUGUUCCUAGGAUGC [Fiskers BMX 4 - 32] (puzzle: Brourd's mod of Exclusion 4) | – | – | 0.025 µM | –
23 | GUUGACUGAUGAGGAUAUUCAUAAGAAUGGGCCUUGGUUUUACAUGAGGAUCACCCAUGUUGACAGAAGAAGGCAUCAGUCUGA [Eternabot solution 28] (Eterna round: R96, puzzle: Exclusion NG 2) | 0.659 µM | 0.109 µM | – | apparent KD of MS2 coat protein [4]: 0.12 µM
24 | UGUGUGUCAGGAUAUAGUUCGAGUUCGGAAAUGAGCUUGAGCUAGAAGGGACAUGAGGAUCACCCAUGUGCACG [-26.3, -25.3 kcal, A 27%, 1-(ca)1] (Eterna round: R97, puzzle: Exclusion 4) | 0.148 µM | 0.0836 µM | – | –
25 | AAAGGACGAGGAUAUACAUGAGGAUCACCCAUGUAAGAAGCAUAAUAAAAUAACUUAUGUAGAAGGCGUCCAAA [Mat - Exclusion 3 - Eli mod - D94] (Eterna round: R96, puzzle: Exclusion 3) | – | – | – | apparent KD of MS2 coat protein [4]: 0.017 µM
26 | CUCGAGUGAGGAUAUAUACUUCCAUCAUUUGAGAGAGAAGUAUAGAAGGCACAUGAGGAUCACCCAUGUAUAAA [Rierreis] (puzzle: Exclusion 4) | – | – | 0.0413 µM | –
27 | AAAGAGCGAGGAUAUACAUGAGGAUCACCCAUGUAAAGAUGCAUGGUCUGAACGUCUGGUAGAAGGCGUAUGAA [Diatater] (puzzle: Exclusion 3) | – | – | 0.0987 µM | –
28 | UAUUGCUGAGGAUAUAUAUAGAGCAUUUUCCUCGUGACAGAACAUGAGGAUCACCCAUGUAGAAGGCAGAAGUG [Eternabot (L2) Solution 87] (Eterna round: R97, puzzle: Exclusion 2) | 0.263 µM | 0.192 µM | – | –
29 | AACUGGACAGGAUAUGUACUUGAGCACUUGAGGAUCACCCAAGUCAUCAAGUACUCAGGCACAGAAGGGUUUAUGA [jl-ex5.4.61 ViennaUCT mod] (Eterna round: R97, puzzle: Exclusion 5) | 0.142 µM | 0.132 µM | – | –
30 | CUUUUGUGAGGAUAUUAGUUGUAAAUAAAUAAAAUUACUACUGAGAAGGCACAUGAGGAUCACCCAUGUUCCUC [salish99_ex4_r3_049] (puzzle: Exclusion 4) | – | – | 0.0332 µM | –
31 | AAUUAAUAUCAGGAUAUGACGUGCGAUAGCACGUCAGAAGGGAUGACAUGAGGAUCACCCAUGUGAUCAAUUAA [E6/1-A4] (Eterna round: R97, puzzle: Exclusion 6) | 0.15 µM | 0.033 µM | – | –
32 | CCGGAACAUGAGGAUCACCCAUGUCAGGAUAUUCCAAAAUCGUCGAUAGACGAUAACAGGAGAAGGGACACCGG [Mat - Exclusion 1 - Eli Mod - D30] (Eterna round: R97, puzzle: Exclusion 1) | 0.0204 µM | 0.0157 µM | – | –
33 | UUUUUAGUGCUUUUUAAGUACAUGAGGAUCACCCAUGUACUUGUCUGGUGGUCCGGACAAGCUUUUUGCUCGUCUAG [Sensor v3 - turn-off variant 1 - 3] (Eterna round: R96, puzzle: Sensor v3, turn-off variant 1) | 0.0356 µM | 0.0358 µM | – | apparent KD of MS2 coat protein [4]: 0.0274 µM
34 | GUCGUGCGGCUUUGCUGUACGAGUACAUGAGGAUCACCCAUGUAGGAUAUGGUUCGUUUUGCGUGCUAGAAGGGCGUGCGUUGU [Excl-NG3-LRO15] (Eterna round: R96, puzzle: Exclusion NG 3) | – | – | – | apparent KD of MS2 coat protein [4]: 0.0179 µM
35 | AAAACAGUGUAGGAUAUGGCUGGGCUGAAAAUGCUAGAAGGACACACAUGAGGAUCACCCAUGUGACUUCGUGC [Atri] (puzzle: Exclusion 6) | – | – | 0.0125 µM | –

Reference: the supplement of paper PMC9170038
